# Measurements from paper PMC8396340.
# Biological target: Transferrin receptor 1 (TfR, CD71) (Homo sapiens) (UniProt P02786)
# Assay: flow cytometry cell binding
# Settings: 5 mM Mg2+, PBS, 4.5 g/L glucose, 5 mM MgCl2, 1 mg/mL BSA, 0.1 mg/mL herring sperm DNA, 30 min on ice (4 C), intact cells
# [1] = HCT-8T cells (cell line inferred)
# UniProt P02786, sequence (P02786 whole entry): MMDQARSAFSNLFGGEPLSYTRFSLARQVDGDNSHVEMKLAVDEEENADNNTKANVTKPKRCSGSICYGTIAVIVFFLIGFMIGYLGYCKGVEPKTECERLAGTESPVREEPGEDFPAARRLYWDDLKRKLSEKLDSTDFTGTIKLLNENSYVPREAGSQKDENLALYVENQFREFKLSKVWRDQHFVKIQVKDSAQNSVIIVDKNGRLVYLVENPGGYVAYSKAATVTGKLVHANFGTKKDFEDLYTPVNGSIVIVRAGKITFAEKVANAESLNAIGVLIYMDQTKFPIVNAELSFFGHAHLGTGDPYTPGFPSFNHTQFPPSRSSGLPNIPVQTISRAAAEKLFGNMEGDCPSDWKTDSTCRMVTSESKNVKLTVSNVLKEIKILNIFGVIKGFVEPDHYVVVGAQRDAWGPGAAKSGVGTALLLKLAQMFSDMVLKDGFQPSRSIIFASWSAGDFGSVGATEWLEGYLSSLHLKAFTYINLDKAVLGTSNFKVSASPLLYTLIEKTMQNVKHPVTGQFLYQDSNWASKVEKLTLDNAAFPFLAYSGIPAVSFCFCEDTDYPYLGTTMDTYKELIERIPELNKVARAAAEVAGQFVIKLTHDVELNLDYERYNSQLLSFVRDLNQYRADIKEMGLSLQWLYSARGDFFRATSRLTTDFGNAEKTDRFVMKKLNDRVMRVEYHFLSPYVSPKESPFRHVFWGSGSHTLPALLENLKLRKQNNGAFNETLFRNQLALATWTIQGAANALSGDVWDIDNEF
Sequence,Kd [1],Kd (HeLa cells),Kd (Jurkat cells)
AAGGAGCAGCGTGGAGGATAGGGATTCTGTTGGTCGGCTGGTTGGTATCCTTAGGGTGTGTCGTCGTGGT [HG1],6.48 nM,,
GGATAGGGATTCTGTTGGTCGGCTGGTTGGTATCC [HG1-9],5.4 nM,19.8 nM,11 nM
